Reference: publication PMC8897395 (Nature Communications, 2022)

Molecular target: the molecule itself
Assay: […], in Tris-HCl buffer (10 mM Tris-HCl pH 8.0, 150 mM NaCl, 1 mM EDTA); […]

B1: MARV nucleoprotein (1–395), wild type (domain or fragment)
chain: MDLHSLLELGTKPTAPHVRNKKVILFDTNHQVSICNQIIDAINSGIDLGDLLEGGLLTLCVEHYYNSDKDKFNTSPVAKYLRDAGYEFDVIKNADATRFLDVSPNEPHYSPLILALKTLESTESQRGRIGLFLSFCSLFLPKLVVGDRASIEKALRQVTVHQEQGIVTYPNHWLTTGHMKVIFGILRSSFILKFVLIHQGVNLVTGHDAYDSIISNSVGQTRFSGLLIVKTVLEFILQKTDSGVTLHPLVRTSKVKNEVASFKQALSNLARHGEYAPFARVLNLSGINNLEHGLYPQLSAIALGVATAHGSTLAGVNVGEQYQQLREAAHDAEVKLQRRHEHQEIQAIAEDDEERKILEQFHLQKTEITHSQTLAVLSQKREKLARLAAEIENNI
B1: binds.
